Measured values taken from the supplement of paper PMC10567573.
± gives the standard deviation.

Experiment: protein stability index of a GFP-peptide fusion (GPS, HEK-293T) (PSI 1-6); higher = more stable
Settings: c terminus: a fixed tail appended
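Also: 24-mer peptide tiles fused after GFP, lentivirally expressed, FACS-sorted into six equal bins by GFP/DsRed ratio, decoded by Illumina sequencing, PSI is the read-weighted mean bin number.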

## YAKVKEFIVDILQFLDIGPDVTRV [MATN2]
treatment: DMSO
  protein stability index: 3.84 ± 0.32
treatment: MLN4924 1 uM, 8 h
  protein stability index: 3.81 ± 0.084

## IMNIEPAILVMHHSMKPHPAITAT [INTS3]
treatment: DMSO
  protein stability index: 2.24 ± 0.38
treatment: MLN4924 1 uM, 8 h
  protein stability index: 2.22 ± 0.16

## IYSLRNKEFKSALCKIVRRTISLL [OR10K2]
treatment: DMSO
  protein stability index: 2.74 ± 1.2
treatment: MLN4924 1 uM, 8 h
  protein stability index: 2.17 ± 0.49

## ASLTIPLVPETEDDRKLAALLKFH [YJU2B]
treatment: DMSO
  protein stability index: 3.05 ± 0.24
treatment: MLN4924 1 uM, 8 h
  protein stability index: 3.41 ± 0.24

## HSLYRRTGASFQKAQQEFAAGVFS [SCAMP3]
treatment: DMSO
  protein stability index: 2.81 ± 0.14
treatment: MLN4924 1 uM, 8 h
  protein stability index: 2.85 ± 0.14

## LCRAQRERLASANLRVLVDCILRD [TEKT4]
treatment: DMSO
  protein stability index: 2.08 ± 0.58
treatment: MLN4924 1 uM, 8 h
  protein stability index: 2.41 ± 0.21

## IKLIDFGIAHKIEAGNEFKNIFGT [DAPK3]
treatment: DMSO
  protein stability index: 2.47 ± 0.31
treatment: MLN4924 1 uM, 8 h
  protein stability index: 2.32 ± 0.21

## VTGETRVLSSTTLLPRQPLPLGIK [PALM]
treatment: DMSO
  protein stability index: 3.66 ± 0.35
treatment: MLN4924 1 uM, 8 h
  protein stability index: 3.63 ± 0.22

## GEVVKIPSRVHGSLEPFRPQQAPQ [PWWP2B]
treatment: DMSO
  protein stability index: 4.22 ± 0.21
treatment: MLN4924 1 uM, 8 h
  protein stability index: 4.16 ± 0.23

## EKSQLIMQAEAEAASVRMRGEAEA [FLOT1]
treatment: DMSO
  protein stability index: 5.04 ± 0.12
treatment: MLN4924 1 uM, 8 h
  protein stability index: 4.7 ± 0.26

## SVPIIGGFWETIFGNRIKRVKLIS [PHTF1]
treatment: DMSO
  protein stability index: 2.29 ± 0.23
treatment: MLN4924 1 uM, 8 h
  protein stability index: 1.94 ± 0.22

## REHCPENRERVVSLIEDLQRELEI [ZNF449]
treatment: DMSO
  protein stability index: 3.91 ± 0.21
treatment: MLN4924 1 uM, 8 h
  protein stability index: 4 ± 0.28

## GFIRHTVNKITFSEQCYYIFGDLC [DVL3]
treatment: DMSO
  protein stability index: 3.11 ± 0.86
treatment: MLN4924 1 uM, 8 h
  protein stability index: 2.64 ± 0.16

## FGLTYRDAENQKNWLDPAKEIKKQ [EPB41L3]
treatment: DMSO
  protein stability index: 3.68 ± 0.082
treatment: MLN4924 1 uM, 8 h
  protein stability index: 4.15 ± 0.089

## DLAKTGCVDLTITNLLEGAVAFMP [AUP1]
treatment: DMSO
  protein stability index: 2.21 ± 0.11
treatment: MLN4924 1 uM, 8 h
  protein stability index: 2.05 ± 0.32

## LLQRELMVPGTRHSAVLRDLRSGT [TNXB]
treatment: DMSO
  protein stability index: 2.43 ± 0.3
treatment: MLN4924 1 uM, 8 h
  protein stability index: 2.75 ± 0.28

## MSHHPSGLRAGFSSTSYRRTFGPP [PRPH]
treatment: DMSO
  protein stability index: 2.92 ± 0.23
treatment: MLN4924 1 uM, 8 h
  protein stability index: 2.94 ± 0.1

## LGNLVEGLDFHRFYFENLWSRNSK [CAMK2A]
treatment: DMSO
  protein stability index: 2.2 ± 0.47
treatment: MLN4924 1 uM, 8 h
  protein stability index: 2.51 ± 0.24

## KKSELLQRITQEQEKKLSFIEALI [TRIM63]
treatment: DMSO
  protein stability index: 2.07 ± 0.3
treatment: MLN4924 1 uM, 8 h
  protein stability index: 2.41 ± 0.35

## RCYYYEDTISTIKSVAWEGGACPA [NCF4]
treatment: DMSO
  protein stability index: 2.31 ± 0.21
treatment: MLN4924 1 uM, 8 h
  protein stability index: 2.43 ± 0.24

## VTRQPRNLQDLCRIKIRQCIGLQN [ASB7]
treatment: DMSO
  protein stability index: 3.4 ± 0.56
treatment: MLN4924 1 uM, 8 h
  protein stability index: 3.35 ± 0.39

## NLESKSTIGVEFATRSIQVDGKTI [RAB11A]
treatment: DMSO
  protein stability index: 4.33 ± 0.19
treatment: MLN4924 1 uM, 8 h
  protein stability index: 4.27 ± 0.35

## LRAELQGHHAEKLPAGAGAPKAGL [TNFSF13B]
treatment: DMSO
  protein stability index: 4.34 ± 0.32
treatment: MLN4924 1 uM, 8 h
  protein stability index: 4.45 ± 0.35

## KEQAIWKHPQPAPAVTPDPWGVQG [PKD2L1]
treatment: DMSO
  protein stability index: 3.75 ± 0.22
treatment: MLN4924 1 uM, 8 h
  protein stability index: 4.07 ± 0.31

## REIEELLAEAKYYLVQGLVEECQA [KCTD10]
treatment: DMSO
  protein stability index: 2.02 ± 0.34
treatment: MLN4924 1 uM, 8 h
  protein stability index: 2.16 ± 0.25

## PAAGESLSGTRESLAQGPDAATTD [TBC1D10A]
treatment: DMSO
  protein stability index: 5.36 ± 0.32
treatment: MLN4924 1 uM, 8 h
  protein stability index: 5.29 ± 0.13

## WRYVSSLPQPLAAHAGAVHNGKIY [KLHL14]
treatment: DMSO
  protein stability index: 2.51 ± 0.26
treatment: MLN4924 1 uM, 8 h
  protein stability index: 2.73 ± 0.078

## DLEDPLGGLLSYDEGGITKQPPVT [FBF1]
treatment: DMSO
  protein stability index: 4.41 ± 0.28
treatment: MLN4924 1 uM, 8 h
  protein stability index: 4.35 ± 0.43

## AKGSLGTQIGFADLMGVLTKGVRE [FEM1A]
treatment: DMSO
  protein stability index: 2.49 ± 0.19
treatment: MLN4924 1 uM, 8 h
  protein stability index: 2.4 ± 0.3

## KAIKQKLWEALCSQGAISEGAQRD [C22orf31]
treatment: DMSO
  protein stability index: 2.72 ± 0.27
treatment: MLN4924 1 uM, 8 h
  protein stability index: 2.85 ± 0.065

## LRDKIMATTIDNSRVILEIDNARL [KRT15]
treatment: DMSO
  protein stability index: 2.59 ± 0.27
treatment: MLN4924 1 uM, 8 h
  protein stability index: 2.66 ± 0.2

## DLYKKVKKNSSPPLSLYGQLLWRE [CRY1]
treatment: DMSO
  protein stability index: 2.64 ± 0.39
treatment: MLN4924 1 uM, 8 h
  protein stability index: 2.67 ± 0.67

## WALGVCNNSWIRKNSTMVNSEDIF [TRIM43]
treatment: DMSO
  protein stability index: 2.03 ± 0.52
treatment: MLN4924 1 uM, 8 h
  protein stability index: 2.12 ± 0.31

## QLRFQHSQDVSDCYLELFPAHLYF [PLEKHN1]
treatment: DMSO
  protein stability index: 2.32 ± 0.54
treatment: MLN4924 1 uM, 8 h
  protein stability index: 2.27 ± 0.28

## REQADSCREQLDIMNDLSNRVWSI [TRIM14]
treatment: DMSO
  protein stability index: 2.23 ± 0.11
treatment: MLN4924 1 uM, 8 h
  protein stability index: 2.28 ± 0.46

## RLAQVKRKILVLDLDETLIHSHHD [CTDNEP1]
treatment: DMSO
  protein stability index: 2.41 ± 0.73
treatment: MLN4924 1 uM, 8 h
  protein stability index: 2.58 ± 0.36

## SIIHQMEKFSSSLHELSSRVEASH [FBF1]
treatment: DMSO
  protein stability index: 2.72 ± 0.21
treatment: MLN4924 1 uM, 8 h
  protein stability index: 2.96 ± 0.2

## PANVDASVMYRKWKESKGKDREYT [CDC34]
treatment: DMSO
  protein stability index: 4.16 ± 0.33
treatment: MLN4924 1 uM, 8 h
  protein stability index: 4.21 ± 0.13

## DLGDIVARSESVLLHMPQPVNPEL [TRIM43]
treatment: DMSO
  protein stability index: 3.67 ± 0.31
treatment: MLN4924 1 uM, 8 h
  protein stability index: 3.8 ± 0.25

## IRTSERVTLIVDNTRFVVDPSIFT [BTBD10]
treatment: DMSO
  protein stability index: 2.35 ± 0.41
treatment: MLN4924 1 uM, 8 h
  protein stability index: 2.36 ± 0.45

## TVLLEEETLEASVGPRETEEKVRD [TOR1AIP2]
treatment: DMSO
  protein stability index: 5.59 ± 0.21
treatment: MLN4924 1 uM, 8 h
  protein stability index: 5.51 ± 0.24

## QMPKFDLGPLLSEPLVLYNQNLSN [MYOZ1]
treatment: DMSO
  protein stability index: 3.15 ± 0.1
treatment: MLN4924 1 uM, 8 h
  protein stability index: 3 ± 0.11

## AYQEVFKPENISLRNKLRELCVKL [SMG5]
treatment: DMSO
  protein stability index: 2.24 ± 0.23
treatment: MLN4924 1 uM, 8 h
  protein stability index: 2.17 ± 0.35

## LAYGSVITVKNLRMAIGYLHSHRH [POMT2]
treatment: DMSO
  protein stability index: 2.53 ± 0.69
treatment: MLN4924 1 uM, 8 h
  protein stability index: 2.63 ± 0.65
